The values that follow come from patent US20200085917A1 (UNIVERSITY OF PITTSBURGH OF THE COMMONWEALTH SYSTEM OF …, published 2020).

The target of this test is T1, GST alone (UniProt P08515 1-218 = GST).
T1 construct: Negative control of the pull-downs; also called control GST
Briefly: GST pull-down, LC-MS/MS. The protocol:
Extracts were spun at 14,000 r.p.m. at 4° C., and clarified supernatants were incubated with glutathione 4B Sepharose beads (GE Healthcare) at 4° C. overnight. The glutathione beads were then washed extensively with ice-cold TNE buffer, and bound proteins were subjected to SDS-PAGE followed by immunoblotting analysis. For the samples subjected to mass spectrometry, glutathione bead-bound proteins from equal amounts (600 μg) of mitochondria were further washed with high stringency RIPA buffer following TNE buffer wash to decrease nonspecific interaction. Proteins were then eluted from the glutathione beads in SDS sample buffer, separated by SDS-PAGE and stained with Coomassie. Proteins in the gel were digested with trypsin and analyzed by mass spectrometry (LC-MS/MS) at the Taplin Biological Mass Spectrometry Facility (Harvard Medical School, Boston, Mass.).

T1 sequence (P08515 whole entry): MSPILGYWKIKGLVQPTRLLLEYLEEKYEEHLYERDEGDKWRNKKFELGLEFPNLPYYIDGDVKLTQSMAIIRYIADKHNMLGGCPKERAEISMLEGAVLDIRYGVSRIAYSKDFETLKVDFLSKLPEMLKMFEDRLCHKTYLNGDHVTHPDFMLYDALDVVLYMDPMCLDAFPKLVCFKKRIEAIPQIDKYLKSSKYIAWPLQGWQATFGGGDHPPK

B1: Cisd1_IPI:IPI00128346.1 (other, mouse, UniProt Q91WS0 1-108, looked up)
chain: MGLSSNSAVRVEWIAAVTFAAGTAALGYLAYKKFYAKENRTKAMVNLQIQKDNPKVVHAFDMEDLGDKAVYCRCWRSKKFPFCDGAHIKHNEETGDNVGPLIIKKKET
As for B1, the binding result was “no binding”.

B2: Cplx2_IPI:IPI00111501.1 (other, mouse, UniProt P84086 1-134, looked up)
chain: MDFVMKQALGGATKDMGKMLGGEEEKDPDAQKKEEERQEALRQQEEERKAKHARMEAEREKVRQQIRDKYGLKKKEEKEAEEKAALEQPCEGSLTRPKKAIPAGCGDEEEEEEESILDTVLKYLPGPLQDMFKK
Consider B2, for which the binding result is reported as “no binding”.

B3: Atp5f1_IPI:IPI00341282.2 (other, mouse, UniProt Q9CQQ7 43-256, looked up)
chain: PLPPLPEYGGKVRLGLIPEEFFQFLYPKTGVTGPYVLGTGLSLYFLSKEIYVITPETFSTISVVGLIVYVIKKYGASFGEFIDKLNEEKIAQLEEVKQSSMKQIQDAIDMEKAQQALVQKRHYLFDVQRNNIALALEVTYRERLHKAYKEVKNRLDYHISVQNMMRRKEEEHMIDWVEKHVVKSISVQQEKETIAKCIEDLKLLAKKAQAQPIM
On to B3, for which the binding result is reported as “no binding”.

B4: Rab5b_IPI:IPI00116563.2 (other, mouse, UniProt P61021 2-215, looked up)
chain: TSRSTARPNGQPQASKICQFKLVLLGESAVGKSSLVLRFVKGQFHEYQESTIGAAFLTQSVCLDDTTVKFEIWDTAGQERYHSLAPMYYRGAQAAIVVYDITNQETFARAKTWVKELQRQASPSIVIALAGNKADLANKRMVEYEEAQAYADDNSLLFMETSAKTAMNVNDLFLAIAKKLPKSEPQNLGGAAGRSRGVDLHEQSQQNKSQCCSN
Take B4: the binding result is on record as “no binding”.

B5: Rab2a_IPI:IPI00137227.1 (other, mouse, UniProt P53994 2-212, looked up)
chain: AYAYLFKYIIIGDTGVGKSCLLLQFTDKRFQPVHDLTIGVEFGARMITIDGKQIKLQIWDTAGQESFRSITRSYYRGAAGALLVYDITRRDTFNHLTTWLEDARQHSNSNMVIMLIGNKSDLESRREVKKEEGEAFAREHGLIFMETSAKTASNVEEAFINTAKEIYEKIQEGVFDINNEANGIKIGPQHAATNASHGSNQGGQQAGGGCC
In the case of B5, the binding result was “no binding”.

B6: Uqcrb_IPI:IPI00132347.1 (other, mouse, UniProt Q9D855 2-111, looked up)
chain: AGRSAVSASSKWLDGFRKWYYNAAGFNKLGLMRDDTLHETEDVKEAIRRLPEDLYNDRMLRIKRALDLTMRHQILPKDQWTKYEEDKFYLEPYLKEVIRERKEREEWAKK
Turning to B6, the binding result is “no binding”.

B7: Rab15_IPI:IPI00170032.1 (other)
chain: MAKQYDVLFRLLLIGDSGVGKTCLLCRFTDNEFHSSHISTIGVDFKMKTIDVDGIKVRIQIWDTAGQERYQTITKQYYRRAQGIFLVYDISSERSYQHIMKWVSDVDEYAPEGVQKILIGNKADEEQKRQVGREQGQQLAKEYGMDFYETSACTNLNIKESFTRLTELVLQAHRKELDGLRTRASNELALAELEEDEGKPEGPANSSKTCWC
modifications: Natural C-terminal geranylgeranylation of the cysteines (CWC motif) in the endogenous protein is not carried by the letters.
As for B7, the binding result is “no binding”.

B8: Ociad2_IPI:IPI00112139.1 (other, mouse, UniProt Q9D8W7 1-154, looked up)
chain: MASVSTHGNQEKSPHLPPLSKQSLLFCPKSKLHIHRGEIAKIIRECQEESFWKRALPFSLISMLVTQGLVHQGYLAANPRFGSLPKVALAGLLGFGLGKASYIRVCQSKFHSFEDQLRGAGFGPEHNRHCLLTCEDCKTRRGLSEKAGSQPSAS
On to B8, for which the binding result is “no binding”.

B9: Pfn2_IPI:IPI00227805.6 (other, mouse, UniProt Q9JJV2 2-140, looked up)
chain: AGWQSYVDNLMCDGCCQEAAIVGYCDAKYVWAATAGGVFQSITPVEIDMIVGKDREGFFTNGLTLGAKKCSVIRDSLYVDGDCTMDIRTKSQGGEPTYNVAVGRAGRVLVFVMGKEGVHGGGLNKKAYSMAKYLRDSGF
Take B9: the binding result is “no binding”.

B10: Ppdpf_IPI:IPI00133078.1 (other, mouse, UniProt Q9CR37 1-115, looked up)
chain: MAAIPSSGSLVATHDYYRRRLGSSSSSSSGGSAEYPGDAVLQSPGLPKADPGHWWASFFFGKSTLPFMTTVLESPERSAESPQVSRSPMTCGLTPETMKQQPVIHSGQTNPRDLS
Take B10: the binding result was “no binding”.

B11: Fis1_IPI:IPI00132217.1 (other, mouse, UniProt Q9CQ92 1-152, looked up)
chain: MEAVLNELVSVEDLKNFERKFQSEQAAGSVSKSTQFEYAWCLVRSKYNEDIRRGIVLLEELLPKGSKEEQRDYVFYLAVGNYRLKEYEKALKYVRGLLQTEPQNNQAKELERLIDKAMKKDGLVGMAIVGGMALGVAGLAGLIGLAVSKSKS
Consider B11, for which the binding result was “no binding”.

B12: Isca2_IPI:IPI00120671.2 (other, mouse, UniProt Q9DCB8 9-154, looked up)
chain: LTAEAVRAVIPRRSGRLLAVFPRLLTRWETTSSIPEAGEGQIRLTDSCVQRLLEITEGSEFLRLQVEGGGCSGFQYKFSLDTVINPDDRVFEQGGARVVVDSDSLAFVKGAQVDFSQELIRSSFQVLNNPQAQQGCSCGSSFSVKV
As for B12, the binding result is listed as “no binding”.

B13: Tim23 (endogenous, mouse forebrain mitochondria) (other, UniProt Q9WTQ8 1-209, looked up)
chain: MEGGGRSSNKSTSGLAGFFGAGGAGYSNADLAGVPLTGMNPLSPYLNVDPRYLVQDTDEFILPTGANKTRGRFELAFFTIGGCCMTGAAFGAMNGLRLGLKETQSMAWSKPRNVQILNMVTRQGALWANTLGSLALLYSAFGVIIEKTRGAEDDLNTVAAGTMTGMLYKCTGGLRGIARGGLAGLTLTSLYALYNNWVHMKGSLLQQSL
notes: also called Timm23_IPI:IPI00123712.1; Tim23 subunit
Regarding B13, the binding result is recorded as “no binding”.

B14: Tomm20_IPI:IPI00120715.1 (other, mouse, UniProt Q9DCC8 1-145, looked up)
chain: MVGRNSAIAAGVCGALFIGYCIYFDRKRRSDPNFKNRLRERRKKQKLAKERAGLSKLPDLKDAEAVQKFFLEEIQLGEELLAQGDYEKGVDHLTNAIAVCGQPQQLLQVLQQTLPPPVFQMLLTKLPTISQRIVSAQSLAEDDVE
In the case of B14, the binding result is given as “no binding”.

B15: Prdx3_IPI:IPI00116192.1 (other, mouse, UniProt P20108 63-257, looked up)
chain: TPAVTQHAPYFKGTAVVNGEFKELSLDDFKGKYLVLFFYPLDFTFVCPTEIVAFSDKANEFHDVNCEVVAVSVDSHFSHLAWINTPRKNGGLGHMNITLLSDITKQISRDYGVLLESAGIALRGLFIIDPNGVVKHLSVNDLPVGRSVEETLRLVKAFQFVETHGEVCPANWTPESPTIKPSPTASKEYFEKVHQ
With B15, the binding result was “no binding”.

B16: C1qbp_IPI:IPI00132799.4 (other, mouse, UniProt O35658 71-278, looked up)
chain: LHTEGDKAFVEFLTDEIKEEKKIQKHKSLPKMSGDWELEVNGTEAKLLRKVAGEKITVTFNINNSIPPTFDGEEEPSQGQKAEEQEPERTSTPNFVVEVTKTDGKKTLVLDCHYPEDEIGHEDEAESDIFSIKEVSFQATGDSEWRDTNYTLNTDSLDWALYDHLMDFLADRGVDNTFADELVELSTALEHQEYITFLEDLKSFVKNQ
As to B16, the binding result was “no binding”.

B17: Cplx1_IPI:IPI00132278.1 (other, mouse, UniProt P63040 1-134, looked up)
chain: MEFVMKQALGGATKDMGKMLGGDEEKDPDAAKKEEERQEALRQAEEERKAKYAKMEAEREVMRQGIRDKYGIKKKEEREAEAQAAMEANSEGSLTRPKKAIPPGCGDEPEEEDESILDTVIKYLPGPLQDMFKK
Take B17: the binding result is “no binding”.

B18: Synj2bp_IPI:IPI00109206.1 (other, mouse, UniProt Q9D6K5 1-145, looked up)
chain: MNGRVDYLVTEEEINLTRGPSGLGFNIVGGTDQQYVSNDSGIYVSRIKEDGAAAQDGRLQEGDKILSVNGQDLKNLLHQDAVDLFRNAGCAVSLRVQHRLPVQNGPIVHRGEGEPSGVPVAMVLLPVFALTMVAVWAFVRYRKQL
For the molecule B18, the binding result is given as “no binding”.

B19: Uqcrq_IPI:IPI00224210.5 (other, mouse, UniProt Q9CQ69 1-82, looked up)
chain: MGREFGNLARIRHVISYSLSPFEQRAFPSYFSKGIPNVLRRTRERILRVAPPFVVVYLIYTWGNQEFEQSKRKNPAMYENDK
Turning to B19, the binding result is on record as “no binding”.

B20: Arf2_IPI:IPI00135730.1 (other, mouse, UniProt Q8BSL7 2-181, looked up)
chain: GNVFEKLFKSLFGKKEMRILMVGLDAAGKTTILYKLKLGEIVTTIPTIGFNVETVEYKNISFTVWDVGGQDKIRPLWRHYFQNTQGLIFVVDSNDRERVNEAREELTRMLAEDELRDAVLLVFVNKQDLPNAMNAAEITDKLGLHSLRQRNWYIQATCATSGDGLYEGLDWLSNQLKNQK
For B20, the binding result was “no binding”.

B21: Mrpl14_IPI:IPI00133778.1 (other, mouse, UniProt Q9D1I6 31-145, looked up)
chain: AVQKMTRVRVVDNSALGSTPYHRPPRCIHVYNKSGVGKVGDQILLAIRGQKKKALIVGHRMPGSRMTPKFDSNNVVLIEDNGNPVGTRIKIPIPTSLRRREGEYSKVLAIAQNFV
Turning to B21, the binding result is “no binding”.

B22: Brp44_IPI:IPI00131896.1 (other, mouse, UniProt Q9D023 1-127, looked up)
chain: MAAAGARGLRATYHRLMDKVELLLPKKLRPLYNHPAGPRTVFFWAPIMKWGLVCAGLADMARPAEKLSTAQSTVLMATGFIWSRYSLVIIPKNWSLFAVNFFVGSAGASQLFRIWRYNQELKSKGIQ
On to B22, for which the binding result is listed as “no binding”.
